Values belong to the molecule of their own block, whether it stands above or below them. No end group written: not given here. *: point of attachment. PSMA‑b‑PS = poly(styrene-alt-maleic anhydride)-b-poly(styrene) polymer; Alloc = C=CCOC(=O)*
Assays:
S100a4 = details: Sack et al. 2011; cited from earlier work
TRAP [1] = molecular target: T1, TRAP (Homo sapiens, UniProt P13686); assay: In vitro binding assay of TBP-NPs and SCP-NPs to TRAP (fluorescamine readout); details: NPs exposed to TRAP in serial dilutions, incubation 2 hours; read-out: Binding Affinity (Kd)
T1 sequence (P13686 22-325): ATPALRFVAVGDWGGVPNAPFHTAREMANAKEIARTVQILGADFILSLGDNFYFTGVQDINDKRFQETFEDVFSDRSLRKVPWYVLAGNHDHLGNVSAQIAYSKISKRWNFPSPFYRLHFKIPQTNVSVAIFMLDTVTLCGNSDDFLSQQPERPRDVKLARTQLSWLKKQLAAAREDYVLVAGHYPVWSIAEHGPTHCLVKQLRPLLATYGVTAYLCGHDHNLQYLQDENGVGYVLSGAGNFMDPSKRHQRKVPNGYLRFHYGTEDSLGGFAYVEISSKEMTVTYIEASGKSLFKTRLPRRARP
Source text: (§1) Polymer-peptide conjugates were self-assembled into nanoparticles via solvent exchange from dimethylformamide (DMF) to water using a syringe pump. Dynamic light scattering (DLS) was used to characterize the size and zeta potential of TBP-NPs and SCP-NPs. An in vitro binding assay that involved exposure of TBP-NPs and SCP-NPs to TRAP in serial dilutions was used to determine the binding affinity of TBP-NPs and establish their efficacy for in vivo applications. Specifically, after exposure of TBP-NPs to TRAP and incubation for 2 hours, fluorescamine, a spiro compound that reacts with primary amines to form highly fluorescent compounds, was added to the reaction. The protein-dye complex was excited with UV LED (365 nm) and emitted at 470 nm on a Cytation 5 Imaging Multimode Reader. The binding affinity (Kd) and maximum binding (Bmax) were then calculated to determine the efficacy of the synthesized TBP-NPs (FIG. 1 C-D).

[2] = Dynamic light scattering characterization of nanoparticle size; assay type: physicochemical; details: nanoparticles, DLS
Source text: as §1

TRAP [3] = molecular target: T1, TRAP; details: known from the art; cited from earlier work
[4] = molecular target: tartrate resistant acid phosphatase (TRAP); assay: in vitro binding assay, NPs exposed to TRAP in serial dilutions, 2 h incubation, fluorescamine fluorescence readout

Kd (TRAP [1]): 468 µM
Molecule: CDI-TBP-Alloc: TBP-NPs made by carbodiimide coupling of Alloc-protected-lysine TBP to pre-formed PSMA-b-PS nanoparticles (TPLSYLK(Alloc)GLVTVG-OH; also: coupled to PSMA-b-PS nanoparticle by amide bond (carbodiimide), site not given here)
Diameter (nm) [2]: 33 ± 3 nm
Dispersity for Size [2]: 0.2 ± 0.1

Kd [4]: 186 µM
B1: TRAP binding peptide nanoparticles (TBP-NPs) prepared by anhydride ring-opening conjugation of Alloc-protected TBP to PSMA-b-PS polymer (peptide)
peptide: {PSMA‑b‑PS}-TPLSYLKGLVTVG-OH
modifications: not fully specified (residue 7); printed as TPLSYLKAllocGLVTVG; also: Lys7 Alloc-protected during conjugation, removal not given here

Kd [4]: 468 µM
B2: TBP-NPs prepared by carbodiimide tagging of pre-formed PSMA-b-PS nanoparticles with Alloc-protected-lysine TBP (peptide)
peptide: TPLSYLK(Alloc)GLVTVG
modifications: not fully specified; printed as TPLSYLKAllocGLVTVG; also: ['coupled to PSMA-b-PS nanoparticles by carbodiimide amide bond']

The remaining lines, values behind:

Molecule: O=C(Nc1ccc([N+](=O)[O-])cc1Cl)c1cc(Cl)ccc1O [Niclosamide]
effect on S100a4 gene and protein expression (S100a4): inhibit the S100a4 gene and protein expression

Molecule: ARO-TBP-Alloc: TBP-NPs from anhydride ring-opening conjugation of Alloc-protected-lysine TBP to PSMA-b-PS polymer, then self-assembly (TPLSYLKGLVTVG-OH; not fully specified (residue 7, N-terminus); printed as TPLSYLKAllocGLVTVG; also: ['conjugated to PSMA-b-PS polymer by anhydride ring-opening'])
Kd (TRAP [1]): 186 µM
Diameter (nm) [2]: 32 ± 2 nm
Dispersity for Size [2]: 0.1 ± 0.1

Molecule: CDI-TBP: TBP-NPs made by carbodiimide coupling of free (unprotected) TBP to PSMA-b-PS nanoparticles (TPLSYLKGLVTVG; not fully specified; also: ['coupled to PSMA-b-PS nanoparticles by carbodiimide amide bond'])
Diameter (nm) [2]: 66 ± 3 nm
Dispersity for Size [2]: 0.4 ± 0.1

Molecule: TPLSYLKGLVTVG [TBP, TPLSYLKGLVTVG (SEQ ID NO: 1), peptide known to home to TRAP]
affinity for TRAP (TRAP [3]): sub-nanomolar affinity
